According to patent US20060172386A1:

Columns and labels:
[1] = biological target: recombinant extracellular domain of FGFR-3c; assay: SPR (BIACORE 2000), FGF-20 fixed on CM5 chip, receptor extracellular domain as analyte
[2] = biological target: recombinant extracellular domain of FGFR-2c; assay: as above

Recombinant FGF-20 (from UniProt Q9EST9 1-212) (ligand)
Kd [1]: 217 nM | koff [1]: 0.0247 s⁻¹ | kon [1]: 115000 M⁻¹ s⁻¹ | Kd [2]: 28.1 nM | koff [2]: 0.0167 s⁻¹ | kon [2]: 595000 M⁻¹ s⁻¹
